The values below come from patent publication US20200199533A1 (KING ABDULLAH UNIVERSITY OF SCIENCE AND TECHNOLOGY, published 2020).

B1: CD34, native glycoprotein from human HSPCs (KG1a, CD34^pos-BM, CD34^pos-UCB, CD34^pos-AML) (ligand, UniProt P28906 32-385, looked up)
chain: SLDNNGTATPELPTQGTFSNVSTNVSYQETTTPSTLGSTSLHPVSQHGNEATTNITETTVKFTSTSVITSVYGNTNSSVQSQTSVISTVFTTPANVSTPETTLKPSLSPGNVSDLSTTSTSLATSPTKPYTSSSPILSDIKAEIKCSGIREVKLTQGICLEQNKTSSCAEFKKDRGEGLARVLCGEEQADADAGAQVCSLLLAQSEVRPQCLLLVLANRTEISSKLQLMKKHQSDLKKLGILDFTEQDVASHQSYSQKTLIALVTSGALLAVLGITGYFLMNRRSWSPTGERLGEDPYYTENGGGQGYSSGPGTSPEAQGKASVNRGAQENGTGQATSRNGHSARQHVVADTEL
modifications: native glycosylation (about 120-130 kDa form); sialylated O-glycans and tyrosine sulfation are shown to matter for selectin binding
notes: mature; also called E-selL CD34

Assay [1] concerns the target CD34, native glycoprotein from human HSPCs (KG1a, CD34^pos-BM, CD34^pos-UCB, CD34^pos-AML) (human) (UniProt P28906). The experiment in a line: Stamper-Woodruff assay, CHO-P cells on CD34 immunoprecipitate from KG1a.
For assay [2] the target is unchanged. Briefly: Stamper-Woodruff assay, CHO-P cells on CD34 immunoprecipitate from CD34^pos-BM.
For assay [3] the target is unchanged. The experiment in a line: Stamper-Woodruff assay, CHO-E cells on CD34 immunoprecipitate from CD34^pos-BM.
Assay [4] has the same target. Briefly: Stamper-Woodruff assay, CHO-E cells on CD34 immunoprecipitate from KG1a.
Assay [5] deals with CD44 (HCELL), native glycoprotein from human HSPCs (KG1a, CD34^pos fraction) (human) (UniProt P16070). Briefly: SPR, dissociation of captured CD44 from immobilized Hermes-3 during the wash after the lysate injection, s^-1 as in paragraph 58; fits the 8.6-fold ratio of paragraph 58.
The target is the same in assay [6]. Briefly: SPR, capture of CD44 from KG1a lysate on immobilized Hermes-3, before normalization. In general terms: SPR reads the build-up and loss of mass on a sensor chip optically.
Assay [7] has the same target. The experiment in a line: SPR, capture of CD44 from KG1a lysate on immobilized Hermes-3, estimated from Equation 1.
The target in assay [8] is CD34, PNGaseF-treated (human) (UniProt P28906). Briefly: SPR; CD34 captured on 4H11 from PNGaseF-treated KG1a lysate; koff-apparent similar to the control.
Assay [9] concerns the target T1, PSGL-1, native glycoprotein from human HSPCs (KG1a, CD34^pos-BM) (human, UniProt Q14242 42-412, native glycosylation and tyrosine sulfation).
T1 construct: mature; also called P-selectin glycoprotein ligand-1
T1 sequence (looked up): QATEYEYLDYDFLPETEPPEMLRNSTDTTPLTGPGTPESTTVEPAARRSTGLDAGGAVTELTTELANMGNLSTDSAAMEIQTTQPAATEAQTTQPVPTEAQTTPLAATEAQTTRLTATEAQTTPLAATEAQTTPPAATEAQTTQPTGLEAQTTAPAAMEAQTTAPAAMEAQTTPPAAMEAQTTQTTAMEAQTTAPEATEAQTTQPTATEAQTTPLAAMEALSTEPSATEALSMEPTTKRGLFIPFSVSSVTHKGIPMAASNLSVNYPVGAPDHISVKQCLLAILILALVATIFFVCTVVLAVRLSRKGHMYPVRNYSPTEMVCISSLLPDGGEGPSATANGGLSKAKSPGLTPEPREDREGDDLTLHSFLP
The experiment in a line: CD34 immunoprecipitation, Western blot for PSGL-1 (KPL-1-mAb). The source says: FIG. 7A is an autoradiograph of Western blots of P-Ig immunoprecipitates from KG1a and CD34^pos-BM lysates probing for CD34 (QBend-10 and EP373Y mAb) or PSGL-1 using KPL-1-mAb. Note that CD34 immunoprecipitates were free from any PSGL-1 contamination. (n=3 independent experiment). FIG. 7B is an autoradiograph of Western blots of CD34 and PSGL-1 immunoprecipitates probed with P-Ig (n=3). FIG. 7C is an autoradiograph of Western blots of E-Ig immunoprecipitates of E-sels from KG1 lysate that were eluted with 30 mM EDTA. The eluate was then immunoprecipitated with CD34-mAbs (4H11 and 581) prior to Western blot analysis with CD34, E-Ig, and P-Ig (n=2 independent experiments). FIG. 7D is a bar graph of Bound cells/field for adherent CHO-P cells. CD34 immunoprecipitates were prepared from CD34^pos-BM and KG1a lysates and spotted on glass slides to test for CHO-P binding using a Stamper-Woodruff assay. n=2 independent experiments. FIG. 7E is a bar graph of # of rolling cells per field showing Adhesion bar graph representing results obtained for the blot-rolling assay using CHO-P cell rolling at 0.25 dyne/cm² (rolling cells/field) over Western blots of immunoprecipitated CD34, CD44, CD43, or PSGL-1 from KG1a cell lysates. EDTA was used as a buffer (gray bars) or CHO-M cells (white bars). […] The resulting proteins were analyzed by Western blot for P-Ig binding.
A general note: Immunoblotting shows a protein as a band on a membrane.

Assay [10] deals with B1. Briefly: SPR; CD34 captured from KG1a lysate on 563-mAb; apparent association rate.
In assay [11] the target is B1. The experiment in a line: SPR; CD34 captured from KG1a lysate on 563-mAb; apparent rate constant.
Assay [12] deals with T1, PSGL-1, native glycoprotein from human …. The experiment in a line: SPR; PSGL-1 captured from KG1a lysate on KPL-1-mAb; apparent association rate.
Assay [13] deals with B1. Briefly: SPR; CD34 captured on 563-mAb against PSGL-1 captured on KPL-1-mAb.
Assay [14] addresses B1. Briefly: SPR, steady-state fit of consecutive P-Ig injections (labels 5.6 to 1000 under the steps) in CaCl2 over CD34 captured from KG1a lysate on 563-mAb, 150 mM NaCl; the run shown; no rise in the P-Ig/EDTA step.
Assay [15] addresses T1, PSGL-1, native glycoprotein from human …. The experiment in a line: SPR, steady-state fit of consecutive P-Ig injections (labels 5.6 to 1000 under the steps) in CaCl2 over PSGL-1 captured from KG1a lysate on KPL-1-mAb, 150 mM NaCl; the run shown; no rise in the P-Ig/EDTA step.
Assay [16] addresses B1. Briefly: SPR; CD34 captured from KG1a lysate on 563-mAb, P-Ig injected, 2 mM CaCl2, 25 C; steady-state model; mean.
The target in assay [17] is T1, PSGL-1, native glycoprotein from human …. Briefly: SPR; PSGL-1 captured from KG1a lysate on KPL-1-mAb, P-Ig injected, 2 mM CaCl2, 25 C; steady-state model; mean.
Assay [18] has the same target. The experiment in a line: SPR; PSGL-1 captured from KG1a lysate on KPL-1-mAb; apparent rate constant; exponent printed as 10^4, read as 10^-4.

Sequence of CD44 (HCELL), native glycoprotein from human HSPCs (KG1a, CD34^pos fraction) (human) (P16070 21-742): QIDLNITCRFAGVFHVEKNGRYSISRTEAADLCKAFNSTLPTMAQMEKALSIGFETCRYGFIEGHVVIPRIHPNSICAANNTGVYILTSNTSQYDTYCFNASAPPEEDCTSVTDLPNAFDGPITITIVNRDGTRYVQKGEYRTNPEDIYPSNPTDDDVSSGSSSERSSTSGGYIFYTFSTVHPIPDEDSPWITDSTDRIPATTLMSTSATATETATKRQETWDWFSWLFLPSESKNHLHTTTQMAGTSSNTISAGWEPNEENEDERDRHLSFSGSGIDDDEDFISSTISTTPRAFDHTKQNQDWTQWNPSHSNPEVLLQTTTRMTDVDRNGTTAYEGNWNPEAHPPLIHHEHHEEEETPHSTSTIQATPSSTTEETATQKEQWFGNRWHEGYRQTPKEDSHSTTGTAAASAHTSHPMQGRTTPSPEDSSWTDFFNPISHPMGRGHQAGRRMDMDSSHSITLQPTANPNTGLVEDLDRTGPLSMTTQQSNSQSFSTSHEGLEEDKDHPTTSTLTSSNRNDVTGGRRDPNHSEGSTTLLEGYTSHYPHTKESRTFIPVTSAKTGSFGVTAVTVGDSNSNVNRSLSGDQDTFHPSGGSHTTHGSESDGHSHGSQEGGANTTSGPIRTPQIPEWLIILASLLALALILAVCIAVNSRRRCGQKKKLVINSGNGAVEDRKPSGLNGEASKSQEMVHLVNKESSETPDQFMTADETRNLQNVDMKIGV

As for “P-selectin expressed on CHO-P cells (receptor)”, the bound cells per field (bound cells per field) in assay [1] was 41; in assay [2] it was 8.
For the molecule “E-selectin expressed on CHO-E cells (receptor)”, the bound cells (bound cells/field) in assay [3] came to 14; in assay [4], 26.
By koff is commonly meant the rate constant with which the complex falls apart. As to CD44-mAb Hermes-3 (antibody), the koff in assay [5] was determined as 5e-05 s⁻¹. In addition, the RUmax at the end of the lysate injection in [6] is 559 RU. The ligand-capturing efficiency in [7] is 20.2%.
For the molecule “recombinant E-selectin human immunoglobulin chimeric protein (Fc fusion)”, in assay [8], the fold reduction in RUmax against the control lysate turned out to be 1.4 fold.
With B1, in assay [9], the binding result is on record as “no binding”.

B2: Recombinant P-selectin human immunoglobulin chimeric protein (Fc fusion)
chain: WTYHYSTKAYSWNISRKYCQNRYTDLVAIQNKNEIDYLNKVLPYYSSYYWIGIRKNNKTWTWVGTKKALTNEAENWADNEPNNKRNNEDCVEIYIKSPSAPGKWNDEHCLKKKHALCYTASCQDMSCSKQGECLETIGNYTCSCYPGFYGPECEYVRECGELELPQHVLMNCSHPLGNFSFNSQCSFHCTDGYQVNGPSKLECLASGIWTNKPPQCLAAQCPPLKIPERGNMTCLHSAKAFQHQSSCSFSCEEGFALVGPEVVQCTASGVWTAPAPVCKAVQCQHLEAPSEGTMDCVHPLTAFAYGSSCKFECQPGYRVRGLDMLRCIDSGHWSAPLPTCEAISCEPLESPVHGSMDCSPSLRAFQYDTNCSFRCAEGFMLRGADIVRCDNLGQWTAPAPVCQALQCQDLPVPNEARVNCSHPFGAFRYQSVCSFTCNEGLLLVGASVLQCLATGNWNSVPPECQAIPCTPLLSPQNGTMTCVQPLGSSSYKSTCQFICDEGYSLSGPERLDCTRSGRWTDSPPMCEAIKCPELFAPEQGSLDCSDTRGEFNVGSTCHFSCDNGFKLEGPNNVECTTSGRWSATPPTCKGIASLPTPGVQCPALTTPGQGTMYCRHHPGTFGFNTTCYFGCNAGFTLIGDSTLSCRPSGQWTAVTPACRAVKCSELHVNKPIAMNCSNLWGNFSYGSICSFHCLEGQLLNGSAQTACQENGHWSTTVPTCQAGPLTIQEA
As a reminder, the kon is a measure of how fast the partners come together. By Kd is commonly meant the concentration at which binding is half-saturated. A higher Kd goes with lower affinity. As for B2, the on-rate (kon) in [10] stood at 452 M⁻¹ s⁻¹; in assay [12] it was 474 M⁻¹ s⁻¹. Also, the off-rate (koff) in assay [11] worked out at 0.0003 s⁻¹; in assay [18] it was 0.0002 s⁻¹. Moreover, the “fold weaker KD than P-Ig to PSGL-1” value in [13] is around 1.7 fold. Moreover, the dissociation constant Kd is around 622 nM in assay [14], around 373 nM in [15], 621 nM in [16] and 372 nM in assay [17].
